For one substance, Kd results are on record in paper PMC6755802.

The assay deals with IL-2 binary complex stapler scFv, recombinantly expressed (human). The assay can be described thus: SPR; biotinylated scFv immobilised on Biacore SA chip at low density; analytes flowed 60 s; complexes pre-incubated 30 min at room temperature; 25 °C; HBS-P+ with 0.2% BSA; KD from equilibrium titration, 1:1 model; in Fig. 1D all proteins at 60 μM. (In general: In SPR one partner is held on a chip, and binding of the other changes the refractive index at the surface.)

Take “Super-2/IL-2Rβ binary complex (from UniProt P60568 21-153; P14784 27-240)”: the Kd came to 0.21 µM.

Usually Kd stands for the constant that tells how readily two partners part at equilibrium.
